± gives the uncertainty stated by the source.
B1: POU domain, class 3, transcription factor 3, residues 320 to 388; numbered along this chain, P20264 (parent)
chain: DDLEQFAKQFKQRRIKLGFTQADVGLALGTLYGNVFSQTTICRFEALQLSFKNMCKLKPLLNKWLEEAD

Variants of: B1
Test: abundance fitness (aPCA) (normalised: wild type 0, dead -1); higher = more abundant; growth selection in yeast, the domain comes from the species named
Details: Homo sapiens

Variant	abundance fitness
DDLEQFAKQFKQRRIKLGFTQADVGLALGTLYGNVFSQTTICRFEELQLSFKNMCKLKPLLNKWLEEAD [A46E]	-0.178 ± 0.15
DDLEQFAKQFKQRRIKLGFTQADVGLALGTLYGNVFSQTTICRFEDLQLSFKNMCKLKPLLNKWLEEAD [A46D]	-0.573 ± 0.37
DDLEQFAKQFKQRRIKLGFTQADVGLALGTLYGNVFSQTTICRFECLQLSFKNMCKLKPLLNKWLEEAD [A46C]	-0.299 ± 0.13
DDLEQFAKQFKQRRIKLGFTQADVGLALGTLYGNVFSQTTICRFRALQLSFKNMCKLKPLLNKWLEEAD [E45R]	-0.891 ± 0.18
DDLEQFAKQFKQRRIKLGFTQADVGLALGTLYGNVFSQTTICRFAALQLSFKNMCKLKPLLNKWLEEAD [E45A]	-0.511 ± 0.21
DDLEQFAKQFKQRRIKLGFTQADVGLALGTLYGNVFSQTTICRFSALQLSFKNMCKLKPLLNKWLEEAD [E45S]	-0.628 ± 0.23
DDLEQFAKQFKQRRIKLGFTQADVGLALGTLYGNVFSQTTICRFKALQLSFKNMCKLKPLLNKWLEEAD [E45K]	-0.649 ± 0.17
DDLEQFAKQFKQRRIKLGFTQADVGLALGTLYGNVFSQTTICRFWALQLSFKNMCKLKPLLNKWLEEAD [E45W]	-0.787 ± 0.18
DDLEQFAKQFKQRRIKLGFTQADVGLALGTLYGNVFSQTTICRFFALQLSFKNMCKLKPLLNKWLEEAD [E45F]	-0.58 ± 0.48
DDLEQFAKQFKQRRIKLGFTQADVGLALGTLYGNVFSQTTICRFGALQLSFKNMCKLKPLLNKWLEEAD [E45G]	-0.982 ± 0.23
DDLEQFAKQFKQRRIKLGFTQADVGLALGTLYGNVFSQTTICRFQALQLSFKNMCKLKPLLNKWLEEAD [E45Q]	0.081 ± 0.18
DDLEQFAKQFKQRRIKLGFTQADVGLALGTLYGNVFSQTTICRFVALQLSFKNMCKLKPLLNKWLEEAD [E45V]	-0.946 ± 0.39
DDLEQFAKQFKQRRIKLGFTQADVGLALGTLYGNVFSQTTICRFMALQLSFKNMCKLKPLLNKWLEEAD [E45M]	-0.82 ± 0.36
DDLEQFAKQFKQRRIKLGFTQADVGLALGTLYGNVFSQTTICRFTALQLSFKNMCKLKPLLNKWLEEAD [E45T]	-0.729 ± 0.2
DDLEQFAKQFKQRRIKLGFTQADVGLALGTLYGNVFSQTTICRFLALQLSFKNMCKLKPLLNKWLEEAD [E45L]	-0.628 ± 0.22
DDLEQFAKQFKQRRIKLGFTQADVGLALGTLYGNVFSQTTICRFPALQLSFKNMCKLKPLLNKWLEEAD [E45P]	-0.803 ± 0.33
DDLEQFAKQFKQRRIKLGFTQADVGLALGTLYGNVFSQTAICRFEALQLSFKNMCKLKPLLNKWLEEAD [T40A]	-0.386 ± 0.1
DDLEQFAKQFKQRRIKLGFTQADVGLALGTLYGNVFSQTDICRFEALQLSFKNMCKLKPLLNKWLEEAD [T40D]	-0.393 ± 0.36
DDLEQFAKQFKQRRIKLGFTQADVGLALGTLYGNVFSQTVICRFEALQLSFKNMCKLKPLLNKWLEEAD [T40V]	-0.174 ± 0.088
DDLEQFAKQFKQRRIKLGFTQADVGLALGTLYGNVFSQTNICRFEALQLSFKNMCKLKPLLNKWLEEAD [T40N]	-0.734 ± 0.32
DDLEQFAKQFKQRRIKLGFTQADVGLALGTLYGNVFSQTPICRFEALQLSFKNMCKLKPLLNKWLEEAD [T40P]	-0.704 ± 0.46
DDLEQFAKQFKQRRIKLGFTQADVGLALGTLYGNVFSQTHICRFEALQLSFKNMCKLKPLLNKWLEEAD [T40H]	-0.778 ± 0.4
DDLEQFAKQFKQRRIKLGFTQADVGLALGTLYGNVFSQTKICRFEALQLSFKNMCKLKPLLNKWLEEAD [T40K]	-0.179 ± 0.097
DDLEQFAKQFKQRRIKLGFTQADVGLALGTLYGNVFSQTEICRFEALQLSFKNMCKLKPLLNKWLEEAD [T40E]	-0.237 ± 0.11
DDLEQFAKQFKQRRIKLGFTQADVGLALGTLYGNVFSQTGICRFEALQLSFKNMCKLKPLLNKWLEEAD [T40G]	-0.92 ± 0.15
DDLEQFAKQFKQRRIKLGFTQADVGLALGTLYGNVFSQTCICRFEALQLSFKNMCKLKPLLNKWLEEAD [T40C]	-0.615 ± 0.16

Variant	abundance fitness
DDLEQFAKQFKQRRIKLGFTQADVGLALGTLYGNVFSQTWICRFEALQLSFKNMCKLKPLLNKWLEEAD [T40W]	-0.441 ± 0.12
DDLEQFAKQFKQRRIKLGFTQADVGLALGTLYGNVFSQTSICRFEALQLSFKNMCKLKPLLNKWLEEAD [T40S]	-0.49 ± 0.11
DDLEQFAKQFKQRRIKLGFTQADVGLALGTLYGNVFSQTYICRFEALQLSFKNMCKLKPLLNKWLEEAD [T40Y]	-0.59 ± 0.25
DDLEQFAKQFKQRRIKLGFTQADVGLALGTLYGNVFSQTQICRFEALQLSFKNMCKLKPLLNKWLEEAD [T40Q]	-0.102 ± 0.078
DDLEQFAKQFKQRRIKLGFTQADVGLALGTLYGNVFSQTIICRFEALQLSFKNMCKLKPLLNKWLEEAD [T40I]	-0.553 ± 0.22
DDLEQFAKQFKQRRIKLGFTQADVGLALGTLYGNVFSQTRICRFEALQLSFKNMCKLKPLLNKWLEEAD [T40R]	-0.583 ± 0.086
DDLEQFAKQFKQRRIKLGFTQADVGLALGTLYGNVFSQTTICRVEALQLSFKNMCKLKPLLNKWLEEAD [F44V]	-0.678 ± 0.2
DDLEQFAKQFKQRRIKLGFTQADVGLALGTLYGNVFSQTTICRAEALQLSFKNMCKLKPLLNKWLEEAD [F44A]	-1.04 ± 0.43
DDLEQFAKQFKQRRIKLGFTQADVGLALGTLYGNVFSQTTICRGEALQLSFKNMCKLKPLLNKWLEEAD [F44G]	-0.772 ± 0.14
DDLEQFAKQFKQRRIKLGFTQADVGLALGTLYGNVFSQTTICRPEALQLSFKNMCKLKPLLNKWLEEAD [F44P]	-1.02 ± 0.42
DDLEQFAKQFKQRRIKLGFTQADVGLALGTLYGNVFSQTTICRKEALQLSFKNMCKLKPLLNKWLEEAD [F44K]	-0.696 ± 0.24
DDLEQFAKQFKQRRIKLGFTQADVGLALGTLYGNVFSQTTICRREALQLSFKNMCKLKPLLNKWLEEAD [F44R]	-0.946 ± 0.19
DDLEQFAKQFKQRRIKLGFTQADVGLALGTLYGNVFSQTTICRWEALQLSFKNMCKLKPLLNKWLEEAD [F44W]	-0.568 ± 0.15
DDLEQFAKQFKQRRIKLGFTQADVGLALGTLYGNVFSQTTICRLEALQLSFKNMCKLKPLLNKWLEEAD [F44L]	-0.859 ± 0.18
DDLEQFAKQFKQRRIKLGFTQADVGLALGTLYGNVFSQTTICRMEALQLSFKNMCKLKPLLNKWLEEAD [F44M]	-0.725 ± 0.18
DDLEQFAKQFKQRRIKLGFTQADVGLALGTLYGNVFSQTTIARFEALQLSFKNMCKLKPLLNKWLEEAD [C42A]	0.076 ± 0.079
DDLEQFAKQFKQRRIKLGFTQADVGLALGTLYGNVFSQTTITRFEALQLSFKNMCKLKPLLNKWLEEAD [C42T]	-0.176 ± 0.1
DDLEQFAKQFKQRRIKLGFTQADVGLALGTLYGNVFSQTTISRFEALQLSFKNMCKLKPLLNKWLEEAD [C42S]	-0.14 ± 0.089
DDLEQFAKQFKQRRIKLGFTQADVGLALGTLYGNVFSQTTIGRFEALQLSFKNMCKLKPLLNKWLEEAD [C42G]	-0.014 ± 0.048
DDLEQFAKQFKQRRIKLGFTQADVGLALGTLYGNVFSQTTIYRFEALQLSFKNMCKLKPLLNKWLEEAD [C42Y]	0.055 ± 0.11
DDLEQFAKQFKQRRIKLGFTQADVGLALGTLYGNVFSQTTIPRFEALQLSFKNMCKLKPLLNKWLEEAD [C42P]	-0.276 ± 0.092
DDLEQFAKQFKQRRIKLGFTQADVGLALGTLYGNVFSQTTIIRFEALQLSFKNMCKLKPLLNKWLEEAD [C42I]	0.11 ± 0.17
DDLEQFAKQFKQRRIKLGFTQADVGLALGTLYGNVFSQTTILRFEALQLSFKNMCKLKPLLNKWLEEAD [C42L]	-0.193 ± 0.07
DDLEQFAKQFKQRRIKLGFTQADVGLALGTLYGNVFSQTTIDRFEALQLSFKNMCKLKPLLNKWLEEAD [C42D]	0.032 ± 0.11
DDLEQFAKQFKQRRIKLGFTQADVGLALGTLYGNVFSQTTIMRFEALQLSFKNMCKLKPLLNKWLEEAD [C42M]	-0.284 ± 0.12
DDLEQFAKQFKQRRIKLGFTQADVGLALGTLYGNVFSQTTIKRFEALQLSFKNMCKLKPLLNKWLEEAD [C42K]	0.13 ± 0.099

Variant	abundance fitness
DDLEQFAKQFKQRRIKLGFTQADVGLALGTLYGNVFSQTTIHRFEALQLSFKNMCKLKPLLNKWLEEAD [C42H]	-0.006 ± 0.24
DDLEQFAKQFKQRRIKLGFTQADVGLALGTLYGNVFSQTTINRFEALQLSFKNMCKLKPLLNKWLEEAD [C42N]	0.208 ± 0.04
DDLEQFAKQFKQRRIKLGFTQADVGLALGTLYGNVFSQTTIRRFEALQLSFKNMCKLKPLLNKWLEEAD [C42R]	0.054 ± 0.061
DDLEQFAKQFKQRRIKLGFTQADVGLALGTLYGNVFSQTTIWRFEALQLSFKNMCKLKPLLNKWLEEAD [C42W]	-0.38 ± 0.078
DDLEQFAKQFKQRRIKLGFTQADVGLALGTLYGNVFSQTTIQRFEALQLSFKNMCKLKPLLNKWLEEAD [C42Q]	0.06 ± 0.081
DDLEQFAKQFKQRRIKLGFTQADVGLALGTLYGNVFSQLTICRFEALQLSFKNMCKLKPLLNKWLEEAD [T39L]	-0.195 ± 0.086
DDLEQFAKQFKQRRIKLGFTQADVGLALGTLYGNVFSQSTICRFEALQLSFKNMCKLKPLLNKWLEEAD [T39S]	-0.099 ± 0.095
DDLEQFAKQFKQRRIKLGFTQADVGLALGTLYGNVFSQKTICRFEALQLSFKNMCKLKPLLNKWLEEAD [T39K]	-0.006 ± 0.18
DDLEQFAKQFKQRRIKLGFTQADVGLALGTLYGNVFSQWTICRFEALQLSFKNMCKLKPLLNKWLEEAD [T39W]	-0.846 ± 0.23
DDLEQFAKQFKQRRIKLGFTQADVGLALGTLYGNVFSQRTICRFEALQLSFKNMCKLKPLLNKWLEEAD [T39R]	-0.058 ± 0.07
DDLEQFAKQFKQRRIKLGFTQADVGLALGTLYGNVFSQYTICRFEALQLSFKNMCKLKPLLNKWLEEAD [T39Y]	-0.769 ± 0.33
DDLEQFAKQFKQRRIKLGFTQADVGLALGTLYGNVFSQPTICRFEALQLSFKNMCKLKPLLNKWLEEAD [T39P]	-0.579 ± 0.18
DDLEQFAKQFKQRRIKLGFTQADVGLALGTLYGNVFSQMTICRFEALQLSFKNMCKLKPLLNKWLEEAD [T39M]	-0.502 ± 0.13
DDLEQFAKQFKQRRIKLGFTQADVGLALGTLYGNVFSQQTICRFEALQLSFKNMCKLKPLLNKWLEEAD [T39Q]	-0.077 ± 0.13
DDLEQFAKQFKQRRIKLGFTQADVGLALGTLYGNVFSQTTICLFEALQLSFKNMCKLKPLLNKWLEEAD [R43L]	-0.858 ± 0.17
DDLEQFAKQFKQRRIKLGFTQADVGLALGTLYGNVFSQTTICDFEALQLSFKNMCKLKPLLNKWLEEAD [R43D]	-0.402 ± 0.26
DDLEQFAKQFKQRRIKLGFTQADVGLALGTLYGNVFSQTTICPFEALQLSFKNMCKLKPLLNKWLEEAD [R43P]	-0.975 ± 0.5
DDLEQFAKQFKQRRIKLGFTQADVGLALGTLYGNVFSQTTICQFEALQLSFKNMCKLKPLLNKWLEEAD [R43Q]	-0.113 ± 0.3
DDLEQFAKQFKQRRIKLGFTQADVGLALGTLYGNVFSQTTICEFEALQLSFKNMCKLKPLLNKWLEEAD [R43E]	-0.076 ± 0.1
DDLEQFAKQFKQRRIKLGFTQADVGLALGTLYGNVFSQTTICGFEALQLSFKNMCKLKPLLNKWLEEAD [R43G]	-0.798 ± 0.12
DDLEQFAKQFKQRRIKLGFTQADVGLALGTLYGNVFSQTTICCFEALQLSFKNMCKLKPLLNKWLEEAD [R43C]	-0.447 ± 0.37
DDLEQFAKQFKQRRIKLGFTQADVGLALGTLYGNVFSQTTICHFEALQLSFKNMCKLKPLLNKWLEEAD [R43H]	-0.586 ± 0.2
DDLEQFAKQFKQRRIKLGFTQADVGLALGTLYGNVFSQTTICMFEALQLSFKNMCKLKPLLNKWLEEAD [R43M]	-0.62 ± 0.47
DDLEQFAKQFKQRRIKLGFTQADVGLALGTLYGNVFSQTTICWFEALQLSFKNMCKLKPLLNKWLEEAD [R43W]	-0.866 ± 0.31
DDLEQFAKQFKQRRIKLGFTQADVGLALGTLYGNVFSQTTICTFEALQLSFKNMCKLKPLLNKWLEEAD [R43T]	-0.946 ± 0.43
DDLEQFAKQFKQRRIKLGFTQADVGLALGTLYGNVFSQTTICKFEALQLSFKNMCKLKPLLNKWLEEAD [R43K]	-0.034 ± 0.11
